US20190185562A1 (Regeneron, published 2019)

T1: extracellular domain of human LEPR, GPI-anchored on HEK293/hLEPR-GPI cells (human, UniProt P48357 22-839, GPI anchor at the C-terminus ; GPI anchor at the C-terminus, added through the carboxypeptidase M signal peptide. The protein is displayed on the HEK293 cell membrane.)
T1 sequence: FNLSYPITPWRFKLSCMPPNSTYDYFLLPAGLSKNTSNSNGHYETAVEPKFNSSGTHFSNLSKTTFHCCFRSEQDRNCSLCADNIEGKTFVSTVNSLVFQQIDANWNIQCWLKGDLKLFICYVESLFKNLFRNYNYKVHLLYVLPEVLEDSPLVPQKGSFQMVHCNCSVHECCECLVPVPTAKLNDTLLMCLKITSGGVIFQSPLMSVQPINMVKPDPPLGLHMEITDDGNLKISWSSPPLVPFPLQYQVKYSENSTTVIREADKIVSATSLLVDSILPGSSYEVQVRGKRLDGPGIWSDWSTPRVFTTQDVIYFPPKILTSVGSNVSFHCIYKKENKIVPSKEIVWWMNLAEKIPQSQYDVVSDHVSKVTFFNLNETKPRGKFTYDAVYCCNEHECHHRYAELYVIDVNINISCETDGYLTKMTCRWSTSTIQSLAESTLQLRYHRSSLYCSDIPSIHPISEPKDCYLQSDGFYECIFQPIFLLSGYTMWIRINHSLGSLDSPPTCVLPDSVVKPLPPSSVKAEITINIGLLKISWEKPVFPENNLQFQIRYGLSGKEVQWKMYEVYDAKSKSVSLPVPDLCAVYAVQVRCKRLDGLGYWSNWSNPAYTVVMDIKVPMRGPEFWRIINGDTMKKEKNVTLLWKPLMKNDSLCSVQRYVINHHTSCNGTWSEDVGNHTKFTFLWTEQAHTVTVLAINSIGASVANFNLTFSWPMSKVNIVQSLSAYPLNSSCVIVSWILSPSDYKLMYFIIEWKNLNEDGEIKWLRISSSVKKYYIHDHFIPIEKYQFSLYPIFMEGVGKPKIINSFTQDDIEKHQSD

T2: wild-type human GP130 on HEK293.STAT3.Luc.GP130.hLEPR reporter cells (human, UniProt P40189 23-918)
T2 sequence (looked up): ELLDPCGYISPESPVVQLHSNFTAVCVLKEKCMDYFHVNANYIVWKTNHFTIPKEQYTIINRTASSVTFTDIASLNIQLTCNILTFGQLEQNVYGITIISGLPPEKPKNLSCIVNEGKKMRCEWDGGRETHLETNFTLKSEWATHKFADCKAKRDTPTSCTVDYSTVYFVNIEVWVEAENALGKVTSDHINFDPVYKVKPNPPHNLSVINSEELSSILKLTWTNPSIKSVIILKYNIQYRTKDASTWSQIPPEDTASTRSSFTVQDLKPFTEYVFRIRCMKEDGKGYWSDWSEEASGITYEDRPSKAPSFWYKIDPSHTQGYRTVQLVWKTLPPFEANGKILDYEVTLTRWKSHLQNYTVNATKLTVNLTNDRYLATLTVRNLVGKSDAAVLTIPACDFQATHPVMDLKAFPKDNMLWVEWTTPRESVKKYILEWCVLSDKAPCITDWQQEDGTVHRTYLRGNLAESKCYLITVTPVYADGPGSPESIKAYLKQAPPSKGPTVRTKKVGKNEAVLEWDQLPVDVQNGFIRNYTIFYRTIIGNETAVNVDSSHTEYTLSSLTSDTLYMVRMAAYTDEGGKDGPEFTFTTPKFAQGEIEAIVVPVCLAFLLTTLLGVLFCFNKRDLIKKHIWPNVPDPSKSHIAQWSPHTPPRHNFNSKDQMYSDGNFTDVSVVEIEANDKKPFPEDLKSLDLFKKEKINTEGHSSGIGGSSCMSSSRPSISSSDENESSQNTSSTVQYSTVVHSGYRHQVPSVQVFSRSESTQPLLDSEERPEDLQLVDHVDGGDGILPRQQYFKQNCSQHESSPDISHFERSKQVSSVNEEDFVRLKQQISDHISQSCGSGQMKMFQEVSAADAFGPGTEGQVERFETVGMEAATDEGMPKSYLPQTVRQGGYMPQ

T3: mutant human LEPR (Y1141F) on HEK293.STAT3.Luc.GP130.hLEPR (Y1141F) cells (human, UniProt P48357 22-1165)
T3 sequence (looked up): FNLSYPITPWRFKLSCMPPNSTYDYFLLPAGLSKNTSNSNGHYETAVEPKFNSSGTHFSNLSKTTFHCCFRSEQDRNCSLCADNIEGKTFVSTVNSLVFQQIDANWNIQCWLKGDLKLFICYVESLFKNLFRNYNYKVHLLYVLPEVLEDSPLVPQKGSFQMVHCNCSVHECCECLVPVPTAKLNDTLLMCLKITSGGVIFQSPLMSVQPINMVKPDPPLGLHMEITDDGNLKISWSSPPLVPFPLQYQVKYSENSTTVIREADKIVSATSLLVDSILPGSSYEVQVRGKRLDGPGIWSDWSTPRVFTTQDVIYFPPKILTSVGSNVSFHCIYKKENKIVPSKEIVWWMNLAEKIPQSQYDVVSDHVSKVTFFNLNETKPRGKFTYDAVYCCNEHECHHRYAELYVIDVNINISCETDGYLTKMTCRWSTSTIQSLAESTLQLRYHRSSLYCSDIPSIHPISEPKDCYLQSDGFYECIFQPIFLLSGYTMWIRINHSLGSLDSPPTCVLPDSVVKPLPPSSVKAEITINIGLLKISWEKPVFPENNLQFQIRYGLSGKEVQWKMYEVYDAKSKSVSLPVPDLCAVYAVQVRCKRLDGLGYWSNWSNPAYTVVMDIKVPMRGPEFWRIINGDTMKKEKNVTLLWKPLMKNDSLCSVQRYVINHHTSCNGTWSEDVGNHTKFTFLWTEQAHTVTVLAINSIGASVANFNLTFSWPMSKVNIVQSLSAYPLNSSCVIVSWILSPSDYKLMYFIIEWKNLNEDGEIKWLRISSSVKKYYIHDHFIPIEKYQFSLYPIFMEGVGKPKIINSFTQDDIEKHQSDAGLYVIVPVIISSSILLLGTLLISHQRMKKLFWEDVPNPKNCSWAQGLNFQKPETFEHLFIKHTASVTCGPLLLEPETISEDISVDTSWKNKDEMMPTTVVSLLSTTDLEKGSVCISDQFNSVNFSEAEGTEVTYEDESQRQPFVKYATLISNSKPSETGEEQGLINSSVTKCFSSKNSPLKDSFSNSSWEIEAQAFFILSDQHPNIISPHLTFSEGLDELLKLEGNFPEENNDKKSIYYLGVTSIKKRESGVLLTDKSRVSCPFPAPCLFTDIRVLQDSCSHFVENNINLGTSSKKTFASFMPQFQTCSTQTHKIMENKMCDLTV

T4: full length human GP130 (leucine at position 2 changed to valine) on HEK293/Stat3-luc/gp130-2X Sort cells (human, UniProt P40189 23-918)
T4 construct: whole, on cells; also called HEK293/gp130 2X Sort
T4 sequence (looked up): T2 sequence (looked up)

B1: mAb18446 (antibody, V domains shown)
VH: EVQLVESGGGLVQPGGSLRLSCAASGFTFSNYGMTWVRQAPGKGLEWVSAITGGGGSTYYSNSVKGRFTISRDNSKNTVYLRMNSVRAEDTAVYYCAKYKWNFVDDWGQGTTVTVSS
VL: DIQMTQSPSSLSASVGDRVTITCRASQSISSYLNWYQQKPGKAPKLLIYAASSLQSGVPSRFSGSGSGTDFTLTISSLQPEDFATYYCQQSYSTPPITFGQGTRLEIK
notes: Conventional anti-LEPR antibody; also called mAB18446 (anti-LEPR mAb)
B2: bsAb21236D (bispecific antibody, V domains shown)
VH 1: QVQLQESGPGLVKPSQTLSLTCTVSGGSISSGGDYWSWIRQLPGKGLEWIGYIYYSGSAYYNPSLKSRGTISIDTSKNQFSLKLTSVTAADTAVYFCVKLRFLEWFLGGWFGPWGQGTLVTVSS
VH 2: QVQLVESGGGLVKPGGSLRLSCAASGFTFSDYYMTWIRQTPGKGLDWVSYISSSGTNKYNADSVKGRFTISRDNAKNSLYLQMNSLRAEDTAVYYCVRDPPWGMDVWGQGTTVTVSS
VL: not shown
notes: LEPR x GP130 bispecific with common light chain; also called H4H21236D; bsAb21236 (LEPR × GP130)
B3: bsAb21237D (bispecific antibody, V domains shown)
VH 1: B1 VH
VH 2: B2 VH 2
VL: not shown
notes: LEPR x GP130 bispecific antibody; also called H4H21237D
B4: mAb16683 (antibody, V domains shown)
VH: B2 VH 2
VL: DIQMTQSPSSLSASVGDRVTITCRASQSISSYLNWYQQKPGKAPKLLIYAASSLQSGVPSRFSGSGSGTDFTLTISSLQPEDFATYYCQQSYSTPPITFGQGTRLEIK
notes: Conventional anti-GP130 antibody; also called mAb16683 (anti-GP130 mAb)
B5: bsAb21237D (bispecific antibody, V domains shown)
VH 1: B1 VH
VH 2: B2 VH 2
VL: not shown
notes: LEPR x GP130 bispecific with common light chain; also called H4H21237D; bsAb21237 (LEPR × GP130)
B6: mAb18445 (antibody, V domains shown)
VH: B2 VH 1
VL: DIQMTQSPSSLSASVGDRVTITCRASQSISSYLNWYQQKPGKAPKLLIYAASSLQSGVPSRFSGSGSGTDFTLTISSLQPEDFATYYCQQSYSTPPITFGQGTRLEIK
notes: Conventional anti-LEPR antibody; also called mAB18445 (anti-LEPR mAb)
B7: bsAb21236D (bispecific antibody, V domains shown)
VH 1: B2 VH 1
VH 2: B2 VH 2
VL: not shown
notes: LEPR x GP130 bispecific antibody; also called H4H21236D

How the values were obtained:
[1] = biological target: T1, extracellular domain of human LEPR, …; assay: FACS, 200 nM antibody, HEK293/hLEPR-GPI cells, 1 µM Leptin present
Procedure: (§1) For the FACS analysis, 0.5×10^6 cells/well of HEK293 parental cells, HEK293/Stat3-luc/gp130-2X Sort cells, and HEK293/hLEPR-GPI cells, were incubated with 200 nM of the conventional antibodies against either GP130 or LEPR or with LEPR×GP130 bispecific antibodies, along with isotype control antibodies at 4° C. in PBS (without calcium and magnesium) containing 2% FBS.
(§2) Cells were fixed using BD CytoFix™ (Becton Dickinson, #554655) and analyzed on an IQue® (Intellicyt) Flow Cytometer. Unstained and secondary antibody alone controls were also tested for all cell lines. The results were analyzed using ForeCyt® (IntelliCyt) and FlowJo version 10 softwares to determine the geometric means of fluorescence for viable cells.

[2] = biological target: T1, extracellular domain of human LEPR, …; assay: FACS, 200 nM antibody, HEK293/hLEPR-GPI cells, No Leptin
Procedure: as §1, §2

[3] = biological target: T2, wild-type human GP130 on …; assay: cell-based or functional assay
[4] = biological target: T3, mutant human LEPR (Y1141F) on …; assay: cell-based or functional assay
[5] = biological target: T4, full length human GP130 (leucine at …); assay: FACS, 200 nM antibody, HEK293/gp130 2X Sort cells
Procedure: as §1, §2

[6] = biological target: T5, human LEPR extracellular domain expressed with a C-terminal myc-myc-hexahistidine tag (human, UniProt P48357 22-839); assay: SPR (Biacore 4000), antibody captured by anti-human Fc, 25 C
T5 construct: Monomeric reagent; the entry named is the whole tagged construct; also called hLEPR-MMH; hLEPR.mmh

[7] = biological target: T6, macaca fascicularis LEPR extracellular domain expressed with a C-terminal myc-myc-hexahistidine tag (Macaca fascicularis, UniProt Q9MYL0 22-837 (rhesus entry)); assay: as above
T6 construct: Monomeric reagent; the entry named is the whole tagged construct; also called mfLEPR-MMH

| Binder | Binding Ratio: Normalized to Unstained Sample of Each Cell Line (FL4-A) [1] [ratio] | Binding Ratio: Normalized to Unstained Sample of Each Cell Line (FL4-A) [2] [ratio] | Binding Ratio: Normalized to Unstained Sample of Each Cell Line (FL4-A) [5] [ratio] | other results |
| --- | --- | --- | --- | --- |
| B1 | 6390 | 7020 | – | – |
| B2 | 3600 | 4420 | 132 | EC50 (M), STAT3-luciferase activation of HEK293.STAT3.Luc.GP130.hLEPR (Y1141F) cells, 10 nM leptin [3]: 2.11e-09 M; Percentage activation as compared to hOSM [3]: 25%; Percentage activation as compared to hOSM [4]: 25% |
| B3 | – | – | – | t½ [6]: 10 min; t½ [7]: 10 min |
| B4 | – | 21 | 235 | – |
| B5 | 5930 | 6320 | 169 | EC50 (M), STAT3-luciferase activation of HEK293.STAT3.Luc.GP130.hLEPR (Y1141F) cells, 10 nM leptin [3]: 2.46e-09 M; Percentage activation as compared to hOSM [3]: 20%; Percentage activation as compared to hOSM [4]: 20% |
| B6 | 4250 | 4710 | – | – |
| B7 | – | – | – | 100 nM hLEPR-MMH Bound (RU) [6]: 8 RU |
